Results published in patent publication US20140295520A1.

Columns and labels:
[1] = molecular target: EutSMNLK (recombinant shell of EutS, EutM, EutN, EutL and EutK) (Salmonella enterica LT2) (UniProt Q9ZFV7); test: cell-based or functional assay
[2] = molecular target: EutS (recombinant EutS shell/compartment) (Salmonella enterica LT2) (UniProt Q9ZFV7); test: cell-based or functional assay
[3] = molecular target: EutMNLK (EutM, EutN, EutL and EutK co-expressed without EutS) (Salmonella enterica LT2); test: cell-based or functional assay
[4] = molecular target: EutS-G39V mutant (Salmonella enterica LT2); test: cell-based or functional assay
[5] = tested on: EutS (recombinant EutS shell/compartment)

Substance	% cells with green flourescent foci (E. coli C2566) [1]	% cells with green flourescent foci (E. coli JM109) [1]	% cells with green flourescent foci (E. coli C2566) [2]	% cells with green flourescent foci (E. coli JM109) [2]	% cells with green flourescent foci (E. coli C2566) [3]	% cells with green flourescent foci (E. coli JM109) [3]	% cells with green flourescent foci (E. coli C2566) [4]	% cells with green flourescent foci (E. coli JM109) [4]	fluorescent localization in E. coli [5]
EutC^1-19-EGFP	84%	79%	87%	84%	–	–	–	–	–
Enhanced Green Fluorescent Protein (EGFP)	0.2%	1.8%	0.5%	0.6%	0.1%	0.8%	0.3%	2.9%	–
EutC^1-19-BTL-2 fused to EGFP (modular cassette)	–	–	–	–	–	–	–	–	Upon co-expression of EutS, the majority of the tagged lipase localizes to a compartment formed somewhat off-center in E. coli
